Source: PMC4154873, “Delineation of Interfaces on Human Alpha-Defensins Critical for Human Adenovirus and Human Papillomavirus Inhibition” (PLoS Pathogens, 2014)
Where a SMILES comes first, the peptide text is derived from it. Bridges are numbered along the chain shown (N, C = ends).

What was measured:
[1] = biological target: T1, rPenton (fiber and penton base) (Human adenovirus C serotype 5, UniProt P11818+P12538); assay: biochemical; assay type: binding, human AdV-5; details: for Kd: SPR Biacore T200, CM5 chip, 2115 RU rPenton, 25°C, HBS EP+ pH 7.4, steady-state fit of RU at 80 sec association, 3 µM to 111 nM, best-fit ± SE
T1 construct: enterokinase recognition site 5′ of the full-length human AdV5 penton base (PB) gene; The baculovirus expression system was used to generate full-length human AdV-5 fiber; enterokinase recognition site (pRSET-A leader) (N); 6xHis followed by Tev protease recognition site (N, cleaved yes); made in house; host or cells: PB: E. coli BL21-CodonPlus (DE3)-RIPL; fiber: HighFive insect cells (baculovirus)
Method: (§1) Experiments were performed on a Biacore T200 system (Biacore, GE Healthcare) at 25°C in HBS EP+ running buffer (9.5 mM HEPES, 142.5 mM NaCl, 2.85 mM EDTA, 0.05% surfactant P20, pH 7.4). The first flow cell on a CM5 sensor chip was reserved to measure background binding, while additional cells were used to immobilize fiber, PB, and rPenton by amine-coupling chemistry. A target density of 2000 resonance units (RU) was selected for rPenton, and for Figure 3D, an equal number of fiber (708 RU) and PB (1292 RU) were also targeted for immobilization. The final RUs immobilized were: 2115 RU rPenton, 889 RU fiber, and 1061 RU PB. Analyte was injected to the flow cells at a rate of 11 µl/min and binding was measured for 3 min, followed by measuring dissociation for 5 min in analyte-free running buffer. The flow cells were regenerated with two 30 s pulses of 10 mM HCl at 11 µl/min separated by 30 s in running buffer. After regeneration, the flow cells were stabilized in running buffer for 2 min before injection of the next analyte. Data analysis was performed using Biacore T200 evaluation software and Prism (version 5.0d).
Affinity (KD) and Bmax were derived by fitting RU values at 80 s post-injection using the Steady State Surface Bound Affinity model in Biacore T200 Evaluation software. Stoichiometry (Sm) of HD5 bound to rPenton at saturation was calculated using the following equation: [drawing 1] (1)

[2] = biological target: rPenton, recombinant penton capsomere of human AdV-5 fiber and penton base (human AdV-5); assay: SPR
AdV5.eGFP [3] = assay: Neutralization of AdV5.eGFP pre-bound to A549 cells before addition of HNP1; assay type: cell-based, human AdV-5; details: virus pre-bound to cells, versus wild type HNP1
Method: A549 cell monolayers were infected with serial dilutions of AdV5.eGFP in black wall, clear bottom 96-well plates (Perkin-Elmer, San Jose, CA). Total monolayer fluorescence was quantified with a Typhoon 9400 variable mode imager (GE Healthcare, Piscataway, NJ) 24–30 h post-infection. A virus concentration producing 50–80% maximal signal was chosen for inhibition studies.
Serum-free DMEM (SFM) alone or containing increasing concentrations of wild type or mutant HD5 was incubated with purified AdV5.eGFP for 45 min on ice. The mixture (35 µl/well) was added to a confluent monolayer of A549 cells that had been washed twice in SFM. Cells were then incubated at 37°C for 2 h with rocking, washed, and cultured with complete DMEM for 24–30 h. Plates were scanned for eGFP signal as above, and background-subtracted total well fluorescence was quantified using ImageJ software [36]. […] For assays with HNP1, virus alone in SFM was pre-incubated on a confluent monolayer of A549 cells with rocking for 45 min at 4°C. Cells were then washed twice with chilled SFM, and SFM alone or containing increasing concentrations of wild type or mutant HNP1 was added. Cells were incubated for 45 min at 4°C and then shifted to 37°C. After 2 h, cells were washed twice with complete media and incubated a further 24–30 h at 37°C until eGFP signal was quantified as above.

[4] = biological target: human AdV-5 fiber (human AdV-5); assay: immunoblot of samples heated or not before SDS-PAGE; fiber samples heated or not for 5 min to 95°C, 4D2 anti-fiber mAb; data not shown
[5] = biological target: human AdV-5 fiber (human AdV-5); assay: SEC; analytical size exclusion chromatography, Superdex 200 10/300 GL; data not shown
[6] = biological target: human AdV-5 penton base (human AdV-5); assay: as above
AdV5.eGFP [7] = details: cited from earlier work
fiber = assay: SPR binding to immobilized fiber; parameters: species or system human AdV-5; details: CAR-Ig at 35 nM, 889 RU fiber
Method: as §1

penton base (PB) = assay: SPR binding to immobilized penton base; parameters: species or system human AdV-5; details: CAR-Ig at 35 nM, 1061 RU PB
Method: as §1

T1 sequence (P11818 whole entry): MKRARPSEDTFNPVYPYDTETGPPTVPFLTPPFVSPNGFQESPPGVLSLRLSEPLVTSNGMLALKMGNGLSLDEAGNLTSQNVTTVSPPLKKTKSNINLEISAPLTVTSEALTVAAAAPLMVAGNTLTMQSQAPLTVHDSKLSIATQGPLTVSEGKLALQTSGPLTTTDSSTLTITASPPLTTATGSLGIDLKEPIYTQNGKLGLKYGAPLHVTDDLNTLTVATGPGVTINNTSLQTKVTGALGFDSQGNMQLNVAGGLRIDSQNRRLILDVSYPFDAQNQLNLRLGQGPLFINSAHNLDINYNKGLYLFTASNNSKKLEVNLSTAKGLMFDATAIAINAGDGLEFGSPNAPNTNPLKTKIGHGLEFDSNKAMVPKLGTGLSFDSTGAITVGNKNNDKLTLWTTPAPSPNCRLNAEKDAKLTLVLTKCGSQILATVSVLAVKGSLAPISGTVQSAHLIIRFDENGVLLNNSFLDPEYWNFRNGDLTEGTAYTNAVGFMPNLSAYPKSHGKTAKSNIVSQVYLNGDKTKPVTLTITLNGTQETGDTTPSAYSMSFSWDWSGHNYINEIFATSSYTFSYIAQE
T1 sequence (P12538 whole entry): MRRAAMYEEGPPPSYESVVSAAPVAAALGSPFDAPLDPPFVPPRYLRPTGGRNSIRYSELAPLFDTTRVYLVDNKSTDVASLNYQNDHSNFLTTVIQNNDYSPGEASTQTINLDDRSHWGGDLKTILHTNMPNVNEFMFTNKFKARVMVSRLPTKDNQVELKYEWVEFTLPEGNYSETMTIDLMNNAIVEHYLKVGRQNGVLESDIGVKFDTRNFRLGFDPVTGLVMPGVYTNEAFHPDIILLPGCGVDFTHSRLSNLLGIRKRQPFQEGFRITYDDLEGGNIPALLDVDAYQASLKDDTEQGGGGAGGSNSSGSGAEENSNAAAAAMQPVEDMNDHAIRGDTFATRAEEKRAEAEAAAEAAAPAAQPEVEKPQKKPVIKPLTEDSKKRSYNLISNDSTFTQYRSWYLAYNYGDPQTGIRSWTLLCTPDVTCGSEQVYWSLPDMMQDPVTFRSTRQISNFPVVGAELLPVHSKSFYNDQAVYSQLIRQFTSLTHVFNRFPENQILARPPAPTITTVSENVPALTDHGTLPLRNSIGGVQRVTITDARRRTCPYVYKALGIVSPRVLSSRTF
Sequence of rPenton, recombinant penton capsomere of human AdV-5 fiber and penton base (human AdV-5) (P11818 whole entry, chain 1 of 2): as the sequence (P11818 whole entry) above
Sequence of rPenton, recombinant penton capsomere of human AdV-5 fiber and penton base (human AdV-5) (P12538 whole entry, chain 2 of 2, further chain): as the sequence (P12538 whole entry) above

CC[C@H](C)[C@@H]1NC(=O)[C@H](CCC(=O)O)NC(=O)[C@@H]2CSSC[C@@H]3NC(=O)[C@H](Cc4ccc(O)cc4)NC(=O)[C@@H](NC(=O)[C@@H](NC(=O)[C@H](C)N)[C@@H](C)O)CSSC[C@@H](C(=O)N[C@@H](CCCNC(=N)N)C(=O)O)NC(=O)[C@H](CSSC[C@H](NC(=O)[C@H](CCCNC(=N)N)NC(=O)CNC(=O)[C@H]([C@@H](C)O)NC(=O)[C@H](CCCNC(=N)N)NC3=O)C(=O)N[C@@H](C)C(=O)N[C@@H]([C@@H](C)O)C(=O)N[C@@H](CCCNC(=N)N)C(=O)N[C@@H](CCC(=O)O)C(=O)N[C@@H](CO)C(=O)N[C@@H](CC(C)C)C(=O)N[C@@H](CO)C(=O)NCC(=O)N[C@@H](C(C)C)C(=O)N2)NC(=O)[C@H](CC(C)C)NC(=O)[C@H](CCCNC(=N)N)NC(=O)[C@H](Cc2ccc(O)cc2)NC(=O)[C@H](CC(C)C)NC(=O)[C@H](CCCNC(=N)N)NC(=O)CNC(=O)[C@H](CO)NC1=O [HD5, human α-defensin 5, reference compound] (H-ATCYCRTGRCATRESLSGVCEISGRLYRLCCR-OH; disulfide 3-31, 5-20, 10-30)
Kd [1]: 1.81 ± 0.22 µM

CC[C@H](C)[C@@H]1NC(=O)[C@H](CCC(=O)O)NC(=O)[C@@H]2CSSC[C@@H]3NC(=O)[C@H](Cc4ccc(O)cc4)NC(=O)[C@@H](NC(=O)[C@@H](NC(=O)[C@H](C)N)[C@@H](C)O)CSSC[C@@H](C(=O)N[C@@H](CCCNC(=N)N)C(=O)O)NC(=O)[C@H](CSSC[C@H](NC(=O)[C@H](CCCNC(=N)N)NC(=O)CNC(=O)[C@H]([C@@H](C)O)NC(=O)[C@H](CCCNC(=N)N)NC3=O)C(=O)N[C@@H](C)C(=O)N[C@@H]([C@@H](C)O)C(=O)N[C@@H](CCCNC(=N)N)C(=O)N[C@@H](CCC(=O)O)C(=O)N[C@@H](CO)C(=O)N[C@@H](CC(C)C)C(=O)N[C@@H](CO)C(=O)NCC(=O)N[C@@H](C(C)C)C(=O)N2)NC(=O)[C@H](C)NC(=O)[C@H](CCCNC(=N)N)NC(=O)[C@H](Cc2ccc(O)cc2)NC(=O)[C@H](CC(C)C)NC(=O)[C@H](CCCNC(=N)N)NC(=O)CNC(=O)[C@H](CO)NC1=O [L29A] (H-ATCYCRTGRCATRESLSGVCEISGRLYRACCR-OH; disulfide 3-31, 5-20, 10-30)
Kd [1]: 3.82 ± 0.3 µM

CC[C@H](C)[C@@H]1NC(=O)[C@H](CCC(=O)O)NC(=O)[C@@H]2CSSC[C@@H]3NC(=O)[C@H](Cc4ccc(O)cc4)NC(=O)[C@@H](NC(=O)[C@@H](NC(=O)[C@H](C)N)[C@@H](C)O)CSSC[C@@H](C(=O)N[C@@H](CCCNC(=N)N)C(=O)O)NC(=O)[C@H](CSSC[C@H](NC(=O)[C@H](CCCNC(=N)N)NC(=O)CNC(=O)[C@H]([C@@H](C)O)NC(=O)[C@H](CCCNC(=N)N)NC3=O)C(=O)N[C@@H](C)C(=O)N[C@@H]([C@@H](C)O)C(=O)N[C@@H](CCCNC(=N)N)C(=O)N[C@@H](CCC(=O)O)C(=O)N[C@@H](CO)C(=O)N[C@@H](CC(C)C)C(=O)N[C@@H](CO)C(=O)NCC(=O)N[C@@H](C(C)C)C(=O)N2)NC(=O)[C@H](CC(C)C)NC(=O)[C@H](CCCNC(=N)N)NC(=O)[C@H](C)NC(=O)[C@H](CC(C)C)NC(=O)[C@H](CCCNC(=N)N)NC(=O)CNC(=O)[C@H](CO)NC1=O [Y27A] (H-ATCYCRTGRCATRESLSGVCEISGRLARLCCR-OH; disulfide 3-31, 5-20, 10-30)
Kd [1]: 3.39 ± 0.27 µM

HD5 L29A (peptide)
Kd [2]: 3.82 µM

HD5 Y27A (peptide)
Kd [2]: 3.39 µM

HNP1 W26A
Effect of HNP1 mutation on anti-AdV activity (in words) (AdV5.eGFP [3]): most deleterious

human AdV-5 fiber (natural protein)
stoichiometry N [4]: 3 | stoichiometry N [5]: 3

human AdV-5 penton base (natural protein)
stoichiometry N [6]: 5

human neutrophil peptide 1 [HNP1]
Ability to neutralize AdV infection compared to HD5 (in words) (AdV5.eGFP [7]): reduced ability to neutralize AdV infection

B1: CAR-Ig: soluble form of the AdV receptor fused to the constant region of rabbit Ig (protein)
chain: LSITTPEEMIEKAKGETAYLPCKFTLSPEDQGPLDIEWLISPADNQKVDQVIILYSGDKIYDDYYPDLKGRVHFTSNDLKSGDASINVTNLQLSDIGTYQCKVKKAPGVANKKIHLVVLVKPSGARCYVDGSEEIGSDFKIKCEPKEGSLPLQYEWQKLSDSQKMPTSWLAEMTSSVISVKNASSEYSGTYSCTVRNRVGSDQCLLRLNVVPPSNK
modifications: left off: Fc (rabbit IgG heavy chain), end not stated, kept
Binding to immobilized rPenton (in words) [1]: able to bind | Binding to immobilized fiber (in words) (fiber): able to bind | Binding to immobilized PB (in words) (penton base (PB)): unable to bind

ATCYCRTGRCATRESLSGVCEISGRLYRLCCR [human α-defensin 5 (HD5), wild type]
Kd [2]: 1.81 µM | stoichiometry N [2]: 210
